Values of other authors in patent publication US10463717B2, “Compositions in the form of an injectable aqueous solution comprising amylin, an amylin receptor agonist or an amylin analog, and a co-polyamino acid” (ADOCIA, priority 2016, dated 2019).
Where two headings read alike, the source gives them in different places. No end group written: not given here.

| pH of the solution above which fibrils form (described for the marketed peptide) | Molecule | Stability of amylin in solution (acidic pH) | Stability of amylin in solution (neutral pH) |
| --- | --- | --- | --- |
|  | amylin: 37 aminoacids peptide which is co-stored and co-secreted with insulin (KCNTATCATQRLANFLVHSSNNFGAILSSTNVGSNTY; not fully specified (C-terminus, bridges); cysteine pairing not given here; UniProt P10997 34-70, looked up) | about fifteen minutes | less than a minute |
| higher than 5.5 | CC[C@H](C)[C@H](NC(=O)[C@@H]1CCCN1C(=O)CNC(=O)[C@H](Cc1ccccc1)NC(=O)[C@H](CC(N)=O)NC(=O)[C@H](CC(N)=O)NC(=O)[C@H](CO)NC(=O)[C@H](CO)NC(=O)[C@H](Cc1c[nH]cn1)NC(=O)[C@@H](NC(=O)[C@H](CC(C)C)NC(=O)[C@H](Cc1ccccc1)NC(=O)[C@H](CC(N)=O)NC(=O)[C@H](C)NC(=O)[C@H](CC(C)C)NC(=O)[C@H](CCCNC(=N)N)NC(=O)[C@H](CCC(N)=O)NC(=O)[C@@H](NC(=O)[C@H](C)NC(=O)[C@@H]1CSSC[C@H](NC(=O)[C@@H](N)CCCCN)C(=O)N[C@@H](CC(N)=O)C(=O)N[C@@H]([C@@H](C)O)C(=O)N[C@@H](C)C(=O)N[C@@H]([C@@H](C)O)C(=O)N1)[C@@H](C)O)C(C)C)C(=O)N[C@@H](CC(C)C)C(=O)N1CCC[C@H]1C(=O)N1CCC[C@H]1C(=O)N[C@H](C(=O)N[C@@H](CC(N)=O)C(=O)N[C@H](C(=O)NCC(=O)N[C@@H](CO)C(=O)N[C@@H](CC(N)=O)C(=O)N[C@H](C(=O)N[C@@H](Cc1ccc(O)cc1)C(N)=O)[C@@H](C)O)C(C)C)[C@@H](C)O [pramlintide, reference compound] |  |  |
